Test results reported in doi:10.1101/2025.07.02.662585 (bioRxiv, 2025).

Target: Tor2 (yeast (endogenous in yeast cells), UniProt P32600 1-2474)
Assay: cryo-EM structure

Chain of Tor2 (P32600 whole entry): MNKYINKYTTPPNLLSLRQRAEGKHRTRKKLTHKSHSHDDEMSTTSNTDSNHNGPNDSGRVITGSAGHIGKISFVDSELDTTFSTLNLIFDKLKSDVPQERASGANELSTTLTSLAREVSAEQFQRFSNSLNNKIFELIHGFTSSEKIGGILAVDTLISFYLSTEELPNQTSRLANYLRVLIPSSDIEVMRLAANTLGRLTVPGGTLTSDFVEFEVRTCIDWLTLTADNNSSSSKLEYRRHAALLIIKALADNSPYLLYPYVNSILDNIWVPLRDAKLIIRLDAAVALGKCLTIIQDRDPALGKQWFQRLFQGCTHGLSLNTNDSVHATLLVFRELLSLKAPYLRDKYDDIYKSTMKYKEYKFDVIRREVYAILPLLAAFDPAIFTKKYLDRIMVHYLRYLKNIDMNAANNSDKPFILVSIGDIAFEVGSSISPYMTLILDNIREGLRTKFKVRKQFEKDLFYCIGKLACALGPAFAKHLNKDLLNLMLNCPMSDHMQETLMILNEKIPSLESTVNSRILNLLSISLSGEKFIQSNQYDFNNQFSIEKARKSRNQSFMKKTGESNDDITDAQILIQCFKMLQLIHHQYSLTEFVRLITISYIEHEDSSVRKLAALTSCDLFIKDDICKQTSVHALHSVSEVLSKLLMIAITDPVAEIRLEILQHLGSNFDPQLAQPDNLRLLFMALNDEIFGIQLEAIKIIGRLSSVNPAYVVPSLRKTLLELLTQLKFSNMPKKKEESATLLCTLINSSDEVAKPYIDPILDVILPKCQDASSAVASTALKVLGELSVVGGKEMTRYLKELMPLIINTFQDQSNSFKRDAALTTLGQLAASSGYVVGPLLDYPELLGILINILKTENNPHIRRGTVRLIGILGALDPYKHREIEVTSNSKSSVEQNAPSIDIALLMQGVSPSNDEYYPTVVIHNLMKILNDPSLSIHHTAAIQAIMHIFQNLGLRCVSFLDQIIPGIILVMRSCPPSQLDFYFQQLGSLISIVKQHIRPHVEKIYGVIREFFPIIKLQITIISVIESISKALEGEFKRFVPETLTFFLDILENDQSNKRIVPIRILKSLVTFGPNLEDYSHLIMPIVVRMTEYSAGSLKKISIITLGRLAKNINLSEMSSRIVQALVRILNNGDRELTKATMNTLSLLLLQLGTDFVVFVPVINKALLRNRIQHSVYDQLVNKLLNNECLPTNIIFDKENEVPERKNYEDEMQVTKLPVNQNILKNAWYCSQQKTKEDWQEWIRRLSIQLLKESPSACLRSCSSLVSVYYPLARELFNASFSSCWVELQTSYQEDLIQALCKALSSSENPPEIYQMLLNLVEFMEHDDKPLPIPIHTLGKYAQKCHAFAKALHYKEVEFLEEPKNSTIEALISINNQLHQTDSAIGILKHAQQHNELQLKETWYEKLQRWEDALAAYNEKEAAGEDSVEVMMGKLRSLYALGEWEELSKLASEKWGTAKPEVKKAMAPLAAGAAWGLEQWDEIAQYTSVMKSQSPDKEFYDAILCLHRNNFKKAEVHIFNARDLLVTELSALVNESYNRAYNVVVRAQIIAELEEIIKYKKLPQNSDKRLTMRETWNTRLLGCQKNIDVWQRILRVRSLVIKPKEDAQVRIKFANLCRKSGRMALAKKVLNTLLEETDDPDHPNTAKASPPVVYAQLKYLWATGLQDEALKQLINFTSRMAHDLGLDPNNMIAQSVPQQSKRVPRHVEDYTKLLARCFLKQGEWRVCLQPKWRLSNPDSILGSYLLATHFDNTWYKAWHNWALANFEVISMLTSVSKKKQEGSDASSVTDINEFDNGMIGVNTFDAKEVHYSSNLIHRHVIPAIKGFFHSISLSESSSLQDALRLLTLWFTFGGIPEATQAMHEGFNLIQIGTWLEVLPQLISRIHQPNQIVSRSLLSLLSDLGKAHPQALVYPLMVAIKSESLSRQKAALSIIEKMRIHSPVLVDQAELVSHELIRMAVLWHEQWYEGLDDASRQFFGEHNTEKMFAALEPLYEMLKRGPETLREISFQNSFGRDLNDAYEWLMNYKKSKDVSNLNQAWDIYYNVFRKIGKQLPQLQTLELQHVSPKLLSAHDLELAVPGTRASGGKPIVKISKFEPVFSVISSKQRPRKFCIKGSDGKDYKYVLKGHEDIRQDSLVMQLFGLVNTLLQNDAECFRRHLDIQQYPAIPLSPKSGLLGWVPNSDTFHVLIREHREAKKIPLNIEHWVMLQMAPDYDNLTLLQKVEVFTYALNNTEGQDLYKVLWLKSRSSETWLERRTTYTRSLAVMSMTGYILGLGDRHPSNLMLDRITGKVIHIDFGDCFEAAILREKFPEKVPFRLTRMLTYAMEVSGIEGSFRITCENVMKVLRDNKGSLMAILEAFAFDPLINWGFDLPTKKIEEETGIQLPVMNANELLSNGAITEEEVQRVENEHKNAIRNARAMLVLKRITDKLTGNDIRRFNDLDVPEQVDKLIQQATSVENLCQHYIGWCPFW

Binder	binding result
Lst8 (natural protein) MSVILVSAGYDHTIRFWEALTGVCSRTIQHSDSQVNRLEITNDKKLLATAGHQNVRLYDIRTTNPNPVASFEGHRGNVTSVSFQQDNRWMVTSSEDGTIKVWDVRSPSIPRNYKHNAPVNEVVIHPNQGELISCDRDGNIRIWDLGENQCTHQLTPEDDTSLQSLSMASDGSMLAAANTKGNCYVWEMPNHTDASHLKPVTKFRAHSTYITRILLSSDVKHLATCSADHTARVWSIDDDFKLETTLDGHQRWVWDCAFSADSAYLVTASSDHYVRLWDLSTREIVRQYGGHHKGAVCVALNDV	binds
Avo2 (natural protein) MLKEPSVRLREAIIEGNLLIVKRLLRRNPDLLTNIDSENGWSSLHYASYHGRYLICVYLIQLGHDKHELIKTFKGNTCVHLALMKGHEQTLHLLLQQFPRFINHRGENGRAPIHIACMNDYYQCLSLLIGVGADLWVMDTNGDTPLHVCLEYGSISCMKMLLNEGEVSLDDNVRDKGNWKPIDVAQTFEVGNIYSKVLKEVKKKGPPLGAGKKPSSFRTPILNAKATFEDGPSPVLSMNSPYSLYSNNSPLPVLPRRISTHTTSGNGGNRRSSITNPVFNPRKPTLSTDSFSSSSNSSSRLRVNSINVKTPVGVSPKKELVSESVRHSATPTSPHNNIALINRYLLPNKSNDNVRGDSQTATINDDGGGGNGGDATIGMGLRKDPDDENENKYKIKVNNGEPRRRVSLLNIPISKLRNSNNTRAED	binds
